One test has as its target T1, SUDV GP (SUDV, UniProt Q7T9D9 33-650).
T1 sequence: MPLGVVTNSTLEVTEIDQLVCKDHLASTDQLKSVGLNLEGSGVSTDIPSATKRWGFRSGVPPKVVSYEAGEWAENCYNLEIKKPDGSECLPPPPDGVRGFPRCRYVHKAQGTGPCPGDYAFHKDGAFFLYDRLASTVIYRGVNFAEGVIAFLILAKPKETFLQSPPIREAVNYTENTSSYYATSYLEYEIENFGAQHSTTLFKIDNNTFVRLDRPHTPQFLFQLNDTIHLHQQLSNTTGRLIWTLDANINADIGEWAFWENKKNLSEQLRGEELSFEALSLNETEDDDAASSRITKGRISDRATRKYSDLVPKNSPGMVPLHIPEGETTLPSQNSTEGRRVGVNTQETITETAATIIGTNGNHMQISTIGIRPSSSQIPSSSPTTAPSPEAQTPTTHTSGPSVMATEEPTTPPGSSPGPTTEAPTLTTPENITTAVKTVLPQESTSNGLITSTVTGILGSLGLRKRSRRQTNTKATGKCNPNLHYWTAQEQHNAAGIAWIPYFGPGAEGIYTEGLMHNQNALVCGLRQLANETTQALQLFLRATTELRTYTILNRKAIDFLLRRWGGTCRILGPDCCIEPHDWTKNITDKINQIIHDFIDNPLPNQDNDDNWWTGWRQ
In words: ELISA, GP coated at 1 μg/mL, 5A8 in 1:3 dilutions.

The next test has as its target T2, RESTV GP (RESTV, UniProt Q66799 34-651).
T2 sequence: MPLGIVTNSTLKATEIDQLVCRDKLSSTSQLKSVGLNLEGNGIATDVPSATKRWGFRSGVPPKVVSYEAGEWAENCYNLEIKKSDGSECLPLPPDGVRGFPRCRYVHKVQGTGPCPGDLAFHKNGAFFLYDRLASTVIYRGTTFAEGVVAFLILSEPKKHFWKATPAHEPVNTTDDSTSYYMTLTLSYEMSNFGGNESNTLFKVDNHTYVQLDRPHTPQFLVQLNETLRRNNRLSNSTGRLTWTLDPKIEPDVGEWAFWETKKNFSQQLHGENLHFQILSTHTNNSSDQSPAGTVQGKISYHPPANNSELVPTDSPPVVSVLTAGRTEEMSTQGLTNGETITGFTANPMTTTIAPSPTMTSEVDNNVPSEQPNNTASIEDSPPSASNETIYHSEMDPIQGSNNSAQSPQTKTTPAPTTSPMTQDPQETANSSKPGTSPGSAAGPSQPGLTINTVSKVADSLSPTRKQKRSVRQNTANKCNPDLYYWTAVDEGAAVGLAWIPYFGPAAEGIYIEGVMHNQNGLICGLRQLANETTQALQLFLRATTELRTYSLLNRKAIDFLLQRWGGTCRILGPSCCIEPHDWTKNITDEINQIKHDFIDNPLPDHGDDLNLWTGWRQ
In words: ELISA, GP coated at 1 μg/mL, 5A8 in 1:3 dilutions. Background: In an ELISA, binding on a coated surface is turned into a signal by an enzyme label.

A further test concerns the target GP 227-295 (Ebola virus (EBOV), UniProt Q05320 227-295). In words: ELISA, truncated GP coated, 5A8 titrated (method of Example 2).
The target in a further test is GP 158-295 (Ebola virus (EBOV), UniProt Q05320 158-295). Described as above.
A further test deals with GP 95-295 (Ebola virus (EBOV), UniProt Q05320 95-295). The test is described as above.
For another test, the target named is GP 33-310;463-558 (Ebola virus (EBOV), UniProt Q05320 33-310; Q05320 463-558). The description is as above.
The next test addresses sGP (Ebola virus (EBOV), UniProt P60170 33-324). The description is as above.
A further test deals with GP1 (Ebola virus (EBOV), UniProt Q05320 33-501). The test is described as above.
A further test deals with T3, EBOV GP (Ebola virus (EBOV), UniProt Q05320 33-650).
T3 sequence: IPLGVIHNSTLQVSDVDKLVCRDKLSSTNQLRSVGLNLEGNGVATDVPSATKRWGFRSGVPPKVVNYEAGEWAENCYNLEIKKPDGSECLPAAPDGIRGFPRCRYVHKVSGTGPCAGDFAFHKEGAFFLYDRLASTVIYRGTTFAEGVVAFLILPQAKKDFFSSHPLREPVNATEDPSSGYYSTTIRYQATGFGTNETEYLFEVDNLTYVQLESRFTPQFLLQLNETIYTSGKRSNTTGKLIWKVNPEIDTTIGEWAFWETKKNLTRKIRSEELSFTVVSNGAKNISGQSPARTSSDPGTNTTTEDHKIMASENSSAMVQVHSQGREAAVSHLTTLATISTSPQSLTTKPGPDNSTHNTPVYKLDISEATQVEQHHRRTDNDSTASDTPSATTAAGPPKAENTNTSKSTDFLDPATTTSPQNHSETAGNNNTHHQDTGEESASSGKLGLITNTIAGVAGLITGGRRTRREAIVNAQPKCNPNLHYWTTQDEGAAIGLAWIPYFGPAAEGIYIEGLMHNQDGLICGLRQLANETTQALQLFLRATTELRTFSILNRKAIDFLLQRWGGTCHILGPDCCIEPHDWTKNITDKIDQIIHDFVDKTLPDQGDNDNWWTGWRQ
Nature of the test: ELISA, GP coated at 1 μg/mL, 5A8 from 10 μg/mL in 1:3 dilutions.

These results are taken from patent CN111138528A (INST MILITARY MEDICINE ACADEMY MILITARY SCIENCES PLA, dated 2020).

As usually defined, the EC50 is the concentration giving half of the maximal effect.

B1: 单克隆抗体5A8 (antibody, V domains shown)
VH: EVQLLESGGGLVKPGGSLRLSCAASGFTFSDYYMNWIRQAPGKGLEWVSYISSSGKTIYYADSVKGRFTISRDNAKKSLYLQMNSLRAEDTAVYYCARDREIVISTTILLGSDHYAMDVWGQGTTVTVSS
VL: DIQMTQSPFTLSASVGDRVTITCRASQSINSYLNWYQQKPGKAPKLLIYSASSLQSGVPSRFSGSGSGTDFTLTISSLQPEDFAIYYCQQTYRTPYTFGQGTKVEIKT
In the case of B1, the binding result with SUDV GP and with RESTV GP was “no binding (tested: 10μg/mL (highest concentration tested))” throughout. Besides, the EC50 is 12.6 ng/mL with GP 227-295; 20 ng/mL in the test with GP 158-295; 7.1 ng/mL in the test with GP 95-295; 4.9 ng/mL with GP 33-310;463-558; 7.5 ng/mL with sGP; 6.9 ng/mL with GP1. The molecule also displayed an EC50 with EBOV GP of 14 ng/mL.
